In patent US20250215412A1 (NOVOZYMES A S, published 2025):
Where a chain is given by its changes, count along the chain named.

Key:
Assay in all cases: cell-based or functional assay
[1] = biological target: T1, Chryseobacterium sp-62563 deamidase polypeptide (second polypeptide, deamidase domain), wildtype (Chryseobacterium sp-62563)
T1 chain: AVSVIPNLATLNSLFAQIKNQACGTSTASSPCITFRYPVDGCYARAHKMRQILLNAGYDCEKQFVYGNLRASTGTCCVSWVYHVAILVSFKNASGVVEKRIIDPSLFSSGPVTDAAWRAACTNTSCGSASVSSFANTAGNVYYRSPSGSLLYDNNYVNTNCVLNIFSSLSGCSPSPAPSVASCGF

[2] = biological target: T2, Chryseobacterium sp-62563 deamidase Y261P (Chryseobacterium sp-62563)
T2 chain: T1 chain with Y152P

[3] = biological target: T3, Chryseobacterium sp-62563 deamidase V190M (Chryseobacterium sp-62563)
T3 chain: T1 chain with V81M

[4] = biological target: T4, Chryseobacterium sp-62563 deamidase V190D (Chryseobacterium sp-62563)
T4 chain: T1 chain with V81D

[5] = biological target: T5, Chryseobacterium sp-62563 deamidase V190Q (Chryseobacterium sp-62563)
T5 chain: T1 chain with V81Q

[6] = biological target: T6, Chryseobacterium sp-62563 deamidase V190P (Chryseobacterium sp-62563)
T6 chain: T1 chain with V81P

[7] = biological target: T7, Chryseobacterium sp-62563 deamidase V190K (Chryseobacterium sp-62563)
T7 chain: T1 chain with V81K

[8] = biological target: T8, Chryseobacterium sp-62563 deamidase V190G (Chryseobacterium sp-62563)
T8 chain: T1 chain with V81G

[9] = biological target: T9, Chryseobacterium sp-62563 deamidase L260K (Chryseobacterium sp-62563)
T9 chain: T1 chain with L151K

[10] = biological target: T10, Chryseobacterium sp-62563 deamidase S258E (Chryseobacterium sp-62563)
T10 chain: T1 chain with S149E

[11] = biological target: T11, Chryseobacterium sp-62563 deamidase V190F (Chryseobacterium sp-62563)
T11 chain: T1 chain with V81F

[12] = biological target: Chryseobacterium sp-62563 deamidase A131* (Chryseobacterium sp-62563)
[13] = biological target: Chryseobacterium sp-62563 deamidase V148* (Chryseobacterium sp-62563)
[14] = biological target: Chryseobacterium sp-62563 deamidase D262* (Chryseobacterium sp-62563)

Relative activity of maturated deamidase [1]: < 20 % initial rate
Relative activity of maturated deamidase [2]: 32 % initial rate
Relative activity of maturated deamidase [3]: 44 % initial rate
Relative activity of maturated deamidase [4]: 30 % initial rate
Relative activity of maturated deamidase [5]: 96 % initial rate
Relative activity of maturated deamidase [6]: 32 % initial rate
Relative activity of maturated deamidase [7]: 36 % initial rate
Relative activity of maturated deamidase [8]: ≥ 100 % initial rate
Relative activity of maturated deamidase [9]: 73 % initial rate
Relative activity of maturated deamidase [10]: ≥ 100 % initial rate
Relative activity of maturated deamidase [11]: ≥ 100 % initial rate
NanoDSF thermal unfolding temperature [12]: 79.1 ° C.
NanoDSF thermal unfolding temperature [13]: 69.2 ° C.
NanoDSF thermal unfolding temperature [14]: 77.7 ° C.
B1: Chryseobacterium sp-62563 propeptide (first polypeptide, propeptide domain), wildtype (other)
chain: NQDPNLVAKESNETAMKDFGKTVPVGIEKEDGKFKISFMVTAQPYEIKDSKENAAYISMIKTAVENETPIHVFLKANTNEIAKVDKATDDDIRYFKSVFTKEVKEENRK
